Experimental data published in IntAct's records for PubMed 20696164.

B1: E3 ubiquitin-protein ligase SH3RF1 (Homo sapiens), Q7Z6J0 (parent)
chain: MDESALLDLLECPVCLERLDASAKVLPCQHTFCKRCLLGIVGSRNELRCPECRTLVGSGVEELPSNILLVRLLDGIKQRPWKPGPGGGSGTNCTNALRSQSSTVANCSSKDLQSSQGGQQPRVQSWSPPVRGIPQLPCAKALYNYEGKEPGDLKFSKGDIIILRRQVDENWYHGEVNGIHGFFPTNFVQIIKPLPQPPPQCKALYDFEVKDKEADKDCLPFAKDDVLTVIRRVDENWAEGMLADKIGIFPISYVEFNSAAKQLIEWDKPPVPGVDAGECSSAAAQSSTAPKHSDTKKNTKKRHSFTSLTMANKSSQASQNRHSMEISPPVLISSSNPTAAARISELSGLSCSAPSQVHISTTGLIVTPPPSSPVTTGPSFTFPSDVPYQAALGTLNPPLPPPPLLAATVLASTPPGATAAAAAAGMGPRPMAGSTDQIAHLRPQTRPSVYVAIYPYTPRKEDELELRKGEMFLVFERCQDGWFKGTSMHTSKIGVFPGNYVAPVTRAVTNASQAKVPMSTAGQTSRGVTMVSPSTAGGPAQKLQGNGVAGSPSVVPAAVVSAAHIQTSPQAKVLLHMTGQMTVNQARNAVRTVAAHNQERPTAAVTPIQVQNAAGLSPASVGLSHHSLASPQPAPLMPGSATHTAAISISRASAPLACAAAAPLTSPSITSASLEAEPSGRIVTVLPGLPTSPDSASSACGNSSATKPDKDSKKEKKGLLKLLSGASTKRKPRVSPPASPTLEVELGSAELPLQGAVGPELPPGGGHGRAGSCPVDGDGPVTTAVAGAALAQDAFHRKASSLDSAVPIAPPPRQACSSLGPVLNESRPVVCERHRVVVSYPPQSEAELELKEGDIVFVHKKREDGWFKGTLQRNGKTGLFPGSFVENI
B2: E3 ubiquitin-protein ligase SH3RF3 (Homo sapiens), Q8TEJ3 (parent)
chain: MLLGASWLCASKAAAAAAQSEGDEDRPGERRRRRAAATAAGAGEDMDESSLLDLLECSVCLERLDTTAKVLPCQHTFCRRCLESIVCSRHELRCPECRILVGCGVDELPANILLVRLLDGIRQRPRAGTSPGGSPPARPIPGQSAAPTLAGGGGGAAGSTPGSPVFLSAAAGSTAGSLRELATSRTAPAAKNPCLLPYGKALYSYEGKEPGDLKFNKGDIIVLRRKVDEQWYHGELHGTQGFLPASYIQCIQPLPHAPPQGKALYDFEMKDKDQDKDCLTFTKDEILTVLRRVDENWAEGMLGDKIGIFPLLYVELNDSAKQLIEMDKPCPAAASSCNASLPSDSGAVASVAPSPTLSSSGAVSAFQRRVDGKKNTKKRHSFTALSVTHRSSQAASHRHSMEISAPVLISSSDPRAAARIGDLAHLSCAAPTQDVSSSAGSTPTAVPRAASVSGEQGTPPKVQLPLNVYLALYAYKPQKSDELELHKGEMYRVLEKCQDGWFKGASLRTGVSGVFPGNYVTPVSRVPAGGAGPPRNNVVGGSPLAKGITTTMHPGSGSLSSLATATRPALPITTPQAHAQHPTASPPTGSCLRHSAQPTASQARSTISTAAHSAAQAQDRPTATVSPLRTQNSPSRLPATSLRPHSVVSPQHSHQPPVQMCPRPAIPLTSAASAITPPNVSAANLNGEAGGGPIGVLSTSSPTNTGCKLDEKKSEKKEKKSGLLKLLAGASTKKKSRSPPSVSPTHDPQVAVDALLQGAVGPEVSSLSIHGRAGSCPIESEMQGAMGMEPLHRKAGSLDLNFTSPSRQAPLSMAAIRPEPKLLPRERYRVVVSYPPQSEAEIELKEGDIVFVHKKREDGWYKGTLQRNGRTGLFPGSFVESF

Variants of: B1
Details: with ubc_human UBC
C28A was tested, and the “effect of a mutation on the interaction” value was “decreasing interaction”. H30A was tested, and the “effect of a mutation on the interaction” value was “decreasing interaction”.

Variants of: B2
Details: with ubc_human UBC
In the case of C73A, the “effect of a mutation on the interaction” value is reported as “decreasing interaction”. For H75A, the “effect of a mutation on the interaction” value was “decreasing interaction”.

Variants of: B2
Details: with rac1_human RAC1, P63000
For P414A, the “effect of a mutation on the interaction” value was “decreasing interaction”.

Variants of: B2
Details: with rac1_human RAC1, P63000
Remark: another data set of the same source
L385A was tested, and the “effect of a mutation on the interaction” value was “decreasing interaction”.

Variants of: B2
Details: with rac1_human RAC1, P63000
Remark: another data set of the same source
P406A was tested, and the “effect of a mutation on the interaction” value was “disrupting interaction”. With I403N the “effect of a mutation on the interaction” value was “disrupting interaction”. In the case of S404P, the “effect of a mutation on the interaction” value is reported as “disrupting interaction”.
